Changes are numbered by the printed parent chain.
B1: F1382 (antibody)
chain 1: QVQLQESGPGLVKPSETLSLTCAVSGHSISHDHAWSWVRQPPGEGLEWIGFISYSGITNYNPSLQGRVTISRDNSKNTLYLQMNSLRAEDTAVYYCARSLARTTAMDYWGEGTLVTVSSASTKGPSVFPLAPSSKSTSGGTAALGCLVKDYFPEPVTVSWNSGALTSGVHTFPAVLQSSGLYSLSSVVTVPSSSLGTQTYICNVNHKPSNTKVDKKVEPKSCDKTHTCPPCPAPELLGGPSVFLFPPKPKDTLMISRTPEVTCVVVDVSHEDPEVKFNWYVDGVEVHNAKTKPREEQYNSTYRVVSVLTVLHQDWLNGKEYKCKVSNKALPAPIEKTISKAKGQPREPQVYTLPPSRDELTKNQVSLTCLVKGFYPSDIAVEWESNGQPENNYKTTPPVLDSDGSFFLYSKLTVDKSRWQQGNVFSCKVLHEALHSHYTQKSLSLSP
chain 2: DIQMTQSPSSLSASVGDSVTITCQASTDISSHLNWYQQKPGKAPELLIYYGSHLLSGVPSRFSGSGSGTDFTFTISSLEAEDAATYYCGQGNRLPYTFGQGTKVEIERTVAAPSVFIFPPSDEQLKSGTASVVCLLNNFYPREAKVQWKVDNALQSGNSQESVTEQDSKDSTYSLSSTLTLSKADYEKHKVYACEVTHQGLSSPVTKSFNRGEC
B2: F1388 (antibody)
chain 1: B1 chain 1 with K428S, Y438F
chain 2: B1 chain 2
B3: F1384 (antibody)
chain 1: B1 chain 1 with K428A
chain 2: B1 chain 2
B4: F1383 (antibody)
chain 1: B1 chain 1 with K428R
chain 2: B1 chain 2
B5: F1391 (antibody)
chain 1: B1 chain 1 with K428S, Y438N
chain 2: B1 chain 2
B6: F1392 (antibody)
chain 1: B1 chain 1 with K428S, Y438K
chain 2: B1 chain 2
B7: F1386 (antibody)
chain 1: B1 chain 1 with K428Y
chain 2: B1 chain 2
B8: F1389 (antibody)
chain 1: B1 chain 1 with K428S, Y438T
chain 2: B1 chain 2
B9: F1380 (antibody)
chain 1: B1 chain 1 with K428D
chain 2: B1 chain 2
B10: F1387 (antibody)
chain 1: B1 chain 1 with K428S, Y438M
chain 2: B1 chain 2
B11: F1390 (antibody)
chain 1: B1 chain 1 with K428S, Y438H
chain 2: B1 chain 2
B12: F1381 (antibody)
chain 1: B1 chain 1 with K428E
chain 2: B1 chain 2
B13: F1385 (antibody)
chain 1: B1 chain 1 with K428Q
chain 2: B1 chain 2

Each binder was assayed against human FcRn (human) (assay: SPR, pH 6.0).

Kd [nM]	Binder
130	B1
80	B2
86	B3
160	B4
420	B5
270	B6
160	B7
68	B8
73	B9
150	B10
400	B11
86	B12
77	B13

Reference: patent US20190112393 (published 2019)
